Source: patent US20180022822A1 (MABIMMUNE DIAGNOSTICS, published 2018)

Key:
[1] = target: T1, bovine serum albumin (BSA) (bovine, UniProt P02769 25-607); assay: direct ELISA: BSA coated directly on the plate
T1 construct: Negative control antigen in the ELISAs

[2] = target: T2, recombinant human Fibroblast Activation Protein (FAP) with N-terminus 6x histidine tag (human, UniProt Q12884 26-760); assay: capture ELISA: His-tagged rFAP captured by coated anti-His antibody (sFAP)
T2 construct: Bought protein; also called rFAP; rhFAP
T2 sequence: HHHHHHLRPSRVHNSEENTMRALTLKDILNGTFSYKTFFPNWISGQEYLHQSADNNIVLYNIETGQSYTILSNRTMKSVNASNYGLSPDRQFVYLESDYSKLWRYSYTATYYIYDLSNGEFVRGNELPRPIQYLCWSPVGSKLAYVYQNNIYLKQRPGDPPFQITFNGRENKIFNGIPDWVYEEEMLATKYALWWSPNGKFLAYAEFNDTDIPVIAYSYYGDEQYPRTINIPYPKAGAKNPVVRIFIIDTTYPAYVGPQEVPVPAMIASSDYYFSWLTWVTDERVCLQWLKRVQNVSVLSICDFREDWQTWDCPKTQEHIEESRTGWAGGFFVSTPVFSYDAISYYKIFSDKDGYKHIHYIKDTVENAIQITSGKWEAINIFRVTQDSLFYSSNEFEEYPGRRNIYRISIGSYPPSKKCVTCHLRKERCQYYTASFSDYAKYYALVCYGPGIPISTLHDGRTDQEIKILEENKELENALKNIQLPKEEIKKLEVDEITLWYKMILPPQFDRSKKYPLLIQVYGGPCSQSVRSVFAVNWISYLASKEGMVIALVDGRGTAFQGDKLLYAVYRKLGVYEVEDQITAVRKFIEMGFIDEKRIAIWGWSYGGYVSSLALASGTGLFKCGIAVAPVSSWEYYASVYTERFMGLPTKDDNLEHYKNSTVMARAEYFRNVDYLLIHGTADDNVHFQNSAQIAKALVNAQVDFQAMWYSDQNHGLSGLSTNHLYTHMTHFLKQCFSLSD
Method: For the capture ELISA, the microplates were coated with mouse anti-His monoclonal antibody (Clontech) diluted to a concentration of 3 μg/ml in PBS, the plates were then blocked, FAP or BSA were diluted to a concentration of 2 μg/ml in PBS and added to the plates to be captured. The binding efficiency of the antibodies was then tested.
The EC₅₀ values were estimated by a non-linear regression using GraphPad Prism (San Diego, USA) software.

[3] = target: T3, recombinant human Dipeptidyl Peptidase 8 (DPP8) (human, UniProt Q6V1X1 1-898, limits assumed); assay: ELISA: enzyme held on the plate by an anti-tag antibody, HRP-labelled NI-206.82C2 titrated [continued) E]
T3 construct: Bought active enzyme; also called rhDPP8; BPS Bioscience 80080
Source text: Active recombinant human enzymes evaluated in this assay include: Fibroblast Activation Protein (FAP; Sino Biologicals, 10464-H07H), Dipeptidyl Peptidase IV (DPPIV, BPS Bioscience 80040), Dipeptidyl Peptidase 8 (DPP8, BPS Bioscience 80080), Dipeptidyl Peptidase 9 (DPP9, BPS Bioscience 80080), and Prolyl Oligopeptidase/Prolyl Endopeptidase (POP/PREP, BPS Bioscience 80105). Each recombinant peptidase was expressed with a purification tag, and attached to the 96 well ELISA plate using either a mouse anti-Histidine antibody (CloneTech), or a mouse anti-Glutathione S-transferase (GST, Sino Biologicals, 111213-MM02) tag antibody. […] H-Gly-Pro-AMC (ATT Bioquest, 13450) was used to validate the presence and activity of DPP4, DPP9, and DPP8. Z-Gly-Pro-AMC (BaChem, 11145) was used to evaluate the activity of FAP and POP/PREP. […] Following a washing step, bound antibody was detected using 3,3′,5,5′-Tetramethylbenzidine (TMB) substrate.

[4] = target: T4, recombinant human Dipeptidyl Peptidase IV (DPPIV) (human, UniProt P27487 29-766, limits assumed); assay: sandwich ELISA: F19 coated as capture antibody, homologue titrated, HRP-labelled NI-206.82C2 as detection antibody; no signal means that no F19/antigen/82C2 sandwich formed
T4 construct: Bought active enzyme; also called rhDPPIV; DPP4
Method: The coating solution was removed and the plate was blocked with 40 μL 2% BSA in PBS blocking buffer for 1 h at room temperature and then discarded. 30 uL sample solution was then added. Sample solutions included recombinant human FAP standard (FIG. 17A), human serum at varying dilutions (FIG. 17B), FAP homologues (FIG. 17C), serum samples from healthy patients (FIGS. 18 and 19), serum samples patients with metastatic colorectal cancer (FIG. 18), serum samples from patients with cardiovascular disease (FIG. 19), sodium citrate plasma samples from healthy patients (FIG. 20), and sodium citrate samples from patients with symptomatic carotid atherosclerotic plaques (FIG. 20). Sample solutions were added at a total volume of 30 μL. The plate was washed three times with 40 μL PBS and blotted dry. […] The plate was then washed again three times with 3×PBS and blotted dry. 30 μL TMB (3,3′,5,5′-Tetramethylbenzidine) solution was then added to each well and allowed to develop for 5-10 minutes at room temperature. The reaction was then stopped by the addition of 30 μL 1M H2SO4, and absorbance at 450 nm was read with a plate reader.

T1 sequence (P02769 25-607 limits assumed): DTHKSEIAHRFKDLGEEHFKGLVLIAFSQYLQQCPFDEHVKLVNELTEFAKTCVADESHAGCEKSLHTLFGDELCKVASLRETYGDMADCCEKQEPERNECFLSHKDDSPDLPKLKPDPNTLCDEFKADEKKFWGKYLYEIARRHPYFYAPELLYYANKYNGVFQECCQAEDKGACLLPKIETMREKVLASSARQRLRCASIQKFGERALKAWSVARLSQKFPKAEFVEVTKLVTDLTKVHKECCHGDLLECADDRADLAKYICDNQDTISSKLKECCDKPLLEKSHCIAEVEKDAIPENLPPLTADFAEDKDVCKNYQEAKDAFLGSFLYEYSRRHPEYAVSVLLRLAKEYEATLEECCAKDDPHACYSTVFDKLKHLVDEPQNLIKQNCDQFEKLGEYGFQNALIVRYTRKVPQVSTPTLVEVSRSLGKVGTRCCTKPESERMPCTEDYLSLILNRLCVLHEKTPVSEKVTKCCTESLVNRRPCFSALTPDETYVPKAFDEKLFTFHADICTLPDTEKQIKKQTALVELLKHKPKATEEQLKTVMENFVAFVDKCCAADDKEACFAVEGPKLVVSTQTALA
T4 sequence (P27487 29-766 limits assumed): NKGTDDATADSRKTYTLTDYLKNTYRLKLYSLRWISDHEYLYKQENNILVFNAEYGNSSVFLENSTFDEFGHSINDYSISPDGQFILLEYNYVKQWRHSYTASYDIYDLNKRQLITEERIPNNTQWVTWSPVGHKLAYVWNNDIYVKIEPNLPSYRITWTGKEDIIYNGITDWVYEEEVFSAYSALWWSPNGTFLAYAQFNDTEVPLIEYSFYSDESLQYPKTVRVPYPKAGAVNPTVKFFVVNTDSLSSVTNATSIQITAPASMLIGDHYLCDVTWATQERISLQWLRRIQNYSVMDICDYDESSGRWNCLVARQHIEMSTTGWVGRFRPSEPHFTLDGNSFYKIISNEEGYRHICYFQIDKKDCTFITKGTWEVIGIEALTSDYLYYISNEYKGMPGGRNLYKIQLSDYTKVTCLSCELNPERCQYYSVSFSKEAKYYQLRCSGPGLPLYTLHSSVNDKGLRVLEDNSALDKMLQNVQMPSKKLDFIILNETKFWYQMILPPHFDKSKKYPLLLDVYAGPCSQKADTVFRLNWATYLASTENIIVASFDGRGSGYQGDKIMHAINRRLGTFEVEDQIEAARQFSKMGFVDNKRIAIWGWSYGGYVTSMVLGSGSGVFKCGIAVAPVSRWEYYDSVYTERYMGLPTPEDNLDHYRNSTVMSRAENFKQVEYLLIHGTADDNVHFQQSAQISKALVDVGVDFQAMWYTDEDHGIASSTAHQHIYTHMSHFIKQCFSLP
T3 sequence (Q6V1X1 whole entry): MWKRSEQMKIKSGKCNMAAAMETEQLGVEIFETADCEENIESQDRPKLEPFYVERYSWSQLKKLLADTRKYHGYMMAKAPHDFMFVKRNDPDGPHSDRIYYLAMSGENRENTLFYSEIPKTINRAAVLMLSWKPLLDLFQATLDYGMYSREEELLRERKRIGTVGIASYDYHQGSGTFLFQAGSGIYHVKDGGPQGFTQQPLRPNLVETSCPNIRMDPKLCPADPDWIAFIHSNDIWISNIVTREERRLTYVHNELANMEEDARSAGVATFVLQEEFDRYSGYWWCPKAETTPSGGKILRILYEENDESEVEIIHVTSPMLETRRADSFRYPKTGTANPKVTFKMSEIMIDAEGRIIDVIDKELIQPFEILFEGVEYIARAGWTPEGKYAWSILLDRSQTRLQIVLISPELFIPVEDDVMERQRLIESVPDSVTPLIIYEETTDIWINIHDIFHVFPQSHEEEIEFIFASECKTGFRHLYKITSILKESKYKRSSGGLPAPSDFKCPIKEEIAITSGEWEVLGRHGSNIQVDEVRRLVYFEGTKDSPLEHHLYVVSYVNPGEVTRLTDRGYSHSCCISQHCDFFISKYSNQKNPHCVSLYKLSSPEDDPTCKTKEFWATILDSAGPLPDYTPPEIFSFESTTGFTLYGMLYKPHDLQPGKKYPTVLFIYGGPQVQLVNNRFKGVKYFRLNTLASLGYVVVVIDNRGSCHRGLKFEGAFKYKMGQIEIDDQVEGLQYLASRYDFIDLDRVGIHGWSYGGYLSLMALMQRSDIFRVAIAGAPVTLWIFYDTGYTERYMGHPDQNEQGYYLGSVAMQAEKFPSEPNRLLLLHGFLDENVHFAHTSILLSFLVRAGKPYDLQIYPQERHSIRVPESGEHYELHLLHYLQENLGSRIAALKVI

B1: NI-206.82C2 (antibody, V domains shown)
VH: QVQLQQSGPGLVKPSQTLSLTCAISGDSVSSNSVTWNWIRQSPSRGLEWLGRTYYRSKWYNDYAVSVKGRITINPDTSKNQFYLQLKSVTPEDAAVYYCARDSSILYGDYWGQGTLVTVSS
VL: QAVLTQPSSLSASPGASASLTCTLPSGINVGTYRIFWFQQKPGSPPQYLLSYKSDSDNHQGSGVPSRFSGSKDASANAGILLISGLQSEDEADYYCMIWHSSAWVFGGGTKLTVL
notes: Recombinantly expressed as complete human IgG1 with a lambda light chain; HRP-labelled in the homologue and sandwich ELISAs, Cy5-labelled in flow cytometry; also called HRP-labelled 82C2; Cy5 labelled 82C2
- binding result [1]: no binding
- EC50 [2]: 14 pM
- binding result [3]: no binding
- binding result [4]: no binding (tested: 250 ng/mL)
